Test results reported in article PMC7353164.

Target: Tim21HA (yeast) (UniProt P53220)
Assay: co-IP

UniProt P53220, sequence (P53220 71-239): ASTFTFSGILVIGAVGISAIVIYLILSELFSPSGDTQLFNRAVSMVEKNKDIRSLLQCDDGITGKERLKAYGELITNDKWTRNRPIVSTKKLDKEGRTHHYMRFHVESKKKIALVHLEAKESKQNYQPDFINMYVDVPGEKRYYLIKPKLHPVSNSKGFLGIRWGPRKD

Mgr2 G26L (from UniProt Q02889 1-113) (natural protein)
percent reduction of co-precipitation against wild type: 50%
